Assay results: patent US20250002564A1 (HOSPITAL FOR SICK CHILDREN, published 2025)
Several values for one entry are separate records, joined by “and”; a condition that tells them apart may be missing. Equal values may be shown once. Read-outs that look alike come from different tables or passages of the source.

B1: mAb 52 (antibody, V domains shown)
VH: QVQLVQSGAEVKKPGSSVKVSCKASGYTFTSYGISWVRQAPGQGLEWMGGIIPMFGTTNYAQKFQGRVTITADKSTSTAYMELSSLRSEDTAVYYCARDRGDTIDYWGQGTLVTVSS
VL: DIQMTQSPSSLSASVGDRVTITCRASQGISNNLNWYQQKPGKAPKLLIYAASSLESGVPSRFSGSGSGTDFTLTISSLQPEDFATYYCQQGNGFPLTFGPGTKVDIKR
notes: also called IgG 52; Antibody 52
B2: mAb 236 (antibody, V domains shown)
VH: QVQLVQSGAEVKKPGASVKVSCKASGGTFTSYGINWVRQAPGQGLEWMGWMNPNSGNTGYAQKFQGRVTMTRDTSTSTVYMELSSLRSEDTAVYYCASRGIQLLPRGMDVWGQGTTVTVSS
VL: not shown
notes: also called IgG 236; Antibody 236
B3: mAb 324 (antibody, V domains shown)
VH: QVQLVQSGAEVKKPGASVKVSCKASGGTFNNYGISWVRQAPGQGLEWMGWMNPNSGNTGYAQKFQGRVTMTRDTSTSTVYMELSSLRSEDTAVYYCARVGDYGDYIVSPFDLWGRGTLVTVSS
VL: DIQMTQSPSSLSASVGDRVTITCRASQSITTYLNWYQQKPGKAPKLLIYDASNLETGVPSRFSGSGSGTDFTLTISSLQPEDFATYYCQQSYSTPPTFGQGTKVEIKR
notes: also called IgG 324; Antibody 324
B4: 4A8 IgG (antibody, V domains shown)
VH: EVQLVESGAEVKKPGASVKVSCKVSGYTLTELSMHWVRQAPGKGLEWMGGFDPEDGETMYAQKFQGRVTMTEDTSTDTAYMELSSLRSEDTAVYYCATSTAVAGTPDLFDYYYGMDVWGQGTTVTVSS
VL: EIVMTQSPLSSPVTLGQPASISCRSSQSLVHSDGNTYLSWLQQRPGQPPRLLIYKISNRFSGVPDRFSGSGAGTDFTLKISRVEAEDVGVYYCTQATQFPYTFGQGTKVDIK
notes: also called IgG 4A8
B5: HD37 single chain IgG2a (mouse, anti-hCD19) (antibody)
chain: DILLTQTPASLAVSLGQRATISCKASQSVDYDGDSYLNWYQQIPGQPPKLLIYDASNLVSGIPPRFSGSGSGTDFTLNIHPVEKVDAATYHCQQSTEDPWTFGGGTKLEIKRADAAPTVSIFPPSSEQLTSGGASVVCFLNNFYPKDINVKWKIDGSERQNGVLNSWTDQDSKDSTYSMSSTLTLTKDEYERHNSYTCEATHKTSTSPIVKSFNRNECGGSSGSGSGSTGTSSSGTGTSAGTTGTSASTSGSGSGGGGGSGGGGSAGGTATAGASSGSGSSGSSSSGGTGTGQVQLQQSGAELVRPGSSVKISCKASGYAFSSYWMNWVKQRPGQGLEWIGQIWPGDGDTNYNGKFKGKATLTADESSSTAYMQLSSLASEDSAVYFCARRETTTVGRYYYAMDYWGQGTSVTVSSSQSFPNVFPLVSCESPLSDKNLVAMGCLARDFLPSTISFTWNYQNNTEVIQGIRTFPTLRTGGKYLATSQVLLSPKSILEGSDEYLVCKIHYGGKNRDLHVPIPSKPCPPCKCPAPNLLGGPSVFIFPPKIKDVLMISLSPIVTCVVVDVSEDDPDVQISWFVNNVEVHTAQTQTHREDYNSTLRVVSALPIQHQDWMSGKEFKCKVNNKDLPAPIERTISKPKGSVRAPQVYVLPPPEEEMTKKQVTLTCMVTDFMPEDIYVEWTNNGKTELNYKNTEPVLDSDGSYFMYSKLRVEKKNWVERNSYSCSVVHEGLHNHHTTKSFSRTPGK
notes: also called mIgG2a control; parental IgG

Columns and labels:
[1] = target: T1, SARS-CoV-2 Spike on wild-type pseudotyped virus (PsV) (SARS-CoV-2, UniProt P0DTC2 14-1273); experiment: cell-based or functional assay
[2] = target: Spike of authentic SARS-CoV-2/SB2-P4-PB virus (SARS-CoV-2, UniProt P0DTC2 14-1273); experiment: cell-based or functional assay
[3] = target: T1, SARS-CoV-2 Spike on wild-type …; experiment: cell-based or functional assay; remark: listed apart in the source
[4] = target: T1, SARS-CoV-2 Spike on wild-type …; experiment: cell-based or functional assay; remark: listed apart in the source
mouse FcγRI = target: T2, mouse FcγRI (mouse, UniProt P26151 25-297)
T2 sequence (looked up): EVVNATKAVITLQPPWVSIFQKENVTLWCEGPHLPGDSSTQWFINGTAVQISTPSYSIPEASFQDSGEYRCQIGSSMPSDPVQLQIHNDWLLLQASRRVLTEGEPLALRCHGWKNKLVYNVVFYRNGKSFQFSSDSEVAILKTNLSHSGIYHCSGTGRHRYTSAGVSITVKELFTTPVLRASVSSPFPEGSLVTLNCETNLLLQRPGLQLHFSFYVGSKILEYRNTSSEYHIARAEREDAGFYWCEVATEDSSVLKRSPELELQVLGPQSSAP

mouse FcRn [5] = target: T3, mouse FcRn (mouse, UniProt Q61559 22-297; P01887 21-119); experiment: pH 5.6
T3 construct: also called mFcRn
T3 sequence (looked up) 1: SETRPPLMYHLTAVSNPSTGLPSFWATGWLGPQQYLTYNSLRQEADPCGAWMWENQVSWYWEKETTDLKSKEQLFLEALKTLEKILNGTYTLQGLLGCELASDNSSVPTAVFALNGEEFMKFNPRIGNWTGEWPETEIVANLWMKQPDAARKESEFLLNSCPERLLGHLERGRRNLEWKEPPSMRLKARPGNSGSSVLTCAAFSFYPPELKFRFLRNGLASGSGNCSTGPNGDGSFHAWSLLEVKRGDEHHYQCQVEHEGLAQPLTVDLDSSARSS
T3 sequence (looked up) 2: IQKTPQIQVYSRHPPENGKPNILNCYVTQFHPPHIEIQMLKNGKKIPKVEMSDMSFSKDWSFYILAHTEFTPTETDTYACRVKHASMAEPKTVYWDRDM

mouse FcRn [6] = target: T3, mouse FcRn

Binder | Median IC50 [1] | IC50 SARS-CoV2/SB2-P4-PB (IgG) [2] [µg/mL] | IC50 SARS-CoV2 PsV (IgG) [3] [µg/mL] | also measured
B1 | 0.61 µg/mL and 4.1 nM | 6.2 | 0.55 | 
B2 | 0.057 µg/mL and 0.38 nM | 5.5 | 0.057 | 
B3 | 0.78 µg/mL and 5.2 nM | 21 | 0.78 | 
B4 |  |  |  | Median IC50 [4]: > 100 µg/mL and > 0.66 µM
B5 |  |  |  | Kd (mouse FcγRI): 8.63 nM; koff (mouse FcγRI): 0.000451 s⁻¹; kon (mouse FcγRI): 52200 M⁻¹ s⁻¹; Kd (mouse FcRn [5]): 1.06 nM; koff (mouse FcRn [5]): 0.000123 s⁻¹; kon (mouse FcRn [6]): 116000 M⁻¹ s⁻¹
